Where a SMILES comes first, the peptide text is derived from it. Where no end group is shown, it is not given here. [ ]: non-standard residue; d: D form. pT = C[C@@H](OP(=O)(O)O)[C@H](N)C(=O)O; pS = N[C@@H](COP(=O)(O)O)C(=O)O
Legend:
14-3-3 isoform epsilon = biological target: T1, 14-3-3 isoform epsilon (Homo sapiens, UniProt P62258); assay: Label-free microscale thermophoresis (MST) binding, 14-3-3 epsilon; settings: label-free MST, 0.6 µM 14-3-3 protein, 25 mM MES pH 6.5, 5 mM MgCl2, 5 mM CaCl2, 25°C; Kd from duplicate measurements
T1 construct: His6; made in house; host or cells: Escherichia coli BL21 Rosetta (DE3)
T1 sequence (P62258 1-255): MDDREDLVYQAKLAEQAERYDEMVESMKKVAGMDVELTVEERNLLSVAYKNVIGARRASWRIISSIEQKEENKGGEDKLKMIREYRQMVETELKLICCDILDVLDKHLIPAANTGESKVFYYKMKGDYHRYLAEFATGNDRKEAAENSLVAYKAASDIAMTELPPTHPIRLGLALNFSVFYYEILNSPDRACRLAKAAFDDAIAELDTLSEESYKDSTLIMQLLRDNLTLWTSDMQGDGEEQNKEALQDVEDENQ
Experimental: (§1) The binding of phosphorylated sirtuin peptides (Fig. 1 ▸) was analyzed using the change in the intrinsic fluorescence signal of the 14-3-3 proteins measured with label-free microscale thermophoresis using a Nanotemper Monolith NT.LabelFree or NT.115. A typical binding experiment using 0.6 µM 14-3-3 protein was performed in a modified MST buffer consisting of 25 mM MES pH 6.5, 5 mM MgCl2, 5 mM CaCl2. The measurements were performed at 25°C using a LED power of 10–40%. All measurements were performed at least in duplicate, and the results shown are representative measurements individually fitted using GraFit 7 (Erathicus Software, Horley, United Kingdom).
(§2) Figure 1 Classification and analysis of sirtuin PSSM results for potential 14-3-3 phosphoserine binding sites. Peptides with a gray background were not analyzed experimentally. Score is the overall PSSM score for the phosphorylation site; rank is the order within the 17 proposed sirtuin binding sites. Conserved residues in the 14-3-3 motifs are marked in green. Residues with restricted (proline) or very flexible (glycine) protein backbone or with a very large side chain (tryptophan) are marked in red. Amino acids with the same or similar hydrophobicity/size are shown in magenta. Kd values from duplicate measurements are colored green for Kd < 100 µM. Fields marked in red indicate no binding or no successful experiment. TEXT PRINTED IN THE PICTURE: Sirt1 S26: Affinity estimates by MicroScale Thermophoresis [μM], 14-3-3 isoform sigma: none | Sirt1 S670: Affinity estimates by MicroScale Thermophoresis [μM], 14-3-3 isoform gamma: aggr.; Affinity estimates by MicroScale Thermophoresis [μM], 14-3-3 isoform epsilon: > 183; Affinity estimates by MicroScale Thermophoresis [μM], 14-3-3 isoform theta: 93; Affinity estimates by MicroScale Thermophoresis [μM], 14-3-3 isoform sigma: 5 | Sirt3 S103: Affinity estimates by MicroScale Thermophoresis [μM], 14-3-3 isoform gamma: aggr.; Affinity estimates by MicroScale Thermophoresis [μM], 14-3-3 isoform epsilon: > 267; Affinity estimates by MicroScale Thermophoresis [μM], 14-3-3 isoform theta: 52; Affinity estimates by MicroScale Thermophoresis [μM], 14-3-3 isoform sigma: 10 | Sirt3 S103wt: Affinity estimates by MicroScale Thermophoresis [μM], 14-3-3 isoform gamma: aggr.; Affinity estimates by MicroScale Thermophoresis [μM], 14-3-3 isoform theta: none; Affinity estimates by MicroScale Thermophoresis [μM], 14-3-3 isoform sigma: none | Sirt3 S105: Affinity estimates by MicroScale Thermophoresis [μM], 14-3-3 isoform gamma: aggr.; Affinity estimates by MicroScale Thermophoresis [μM], 14-3-3 isoform epsilon: > 215; Affinity estimates by MicroScale Thermophoresis [μM], 14-3-3 isoform theta: 60; Affinity estimates by MicroScale Thermophoresis [μM], 14-3-3 isoform sigma: none | Sirt5 S168: Affinity estimates by MicroScale Thermophoresis [μM], 14-3-3 isoform epsilon: aggr.; Affinity estimates by MicroScale Thermophoresis [μM], 14-3-3 isoform theta: aggr.; Affinity estimates by MicroScale Thermophoresis [μM], 14-3-3 isoform sigma: > 329 | Sirt6 T337: Affinity estimates by MicroScale Thermophoresis [μM], 14-3-3 isoform epsilon: > 420; Affinity estimates by MicroScale Thermophoresis [μM], 14-3-3 isoform sigma: 12 | Sirt6 S338: Affinity estimates by MicroScale Thermophoresis [μM], 14-3-3 isoform epsilon: 19; Affinity estimates by MicroScale Thermophoresis [μM], 14-3-3 isoform sigma: 24 | Sirt7 S136: Affinity estimates by MicroScale Thermophoresis [μM], 14-3-3 isoform epsilon: none; Affinity estimates by MicroScale Thermophoresis [μM], 14-3-3 isoform theta: 30; Affinity estimates by MicroScale Thermophoresis [μM], 14-3-3 isoform sigma: 49

14-3-3 isoform theta = biological target: T2, 14-3-3 isoform theta (Homo sapiens, UniProt P27348); assay: Label-free microscale thermophoresis (MST) binding, 14-3-3 theta; settings: label-free MST, 0.6 µM 14-3-3 protein, 25 mM MES pH 6.5, 5 mM MgCl2, 5 mM CaCl2, 25°C; Kd from duplicate measurements; read-out: Affinity estimates by MicroScale Thermophoresis, 14-3-3 isoform theta (Kd)
T2 construct: His6; made in house; host or cells: Escherichia coli BL21 Rosetta (DE3)
T2 sequence (P27348 1-245): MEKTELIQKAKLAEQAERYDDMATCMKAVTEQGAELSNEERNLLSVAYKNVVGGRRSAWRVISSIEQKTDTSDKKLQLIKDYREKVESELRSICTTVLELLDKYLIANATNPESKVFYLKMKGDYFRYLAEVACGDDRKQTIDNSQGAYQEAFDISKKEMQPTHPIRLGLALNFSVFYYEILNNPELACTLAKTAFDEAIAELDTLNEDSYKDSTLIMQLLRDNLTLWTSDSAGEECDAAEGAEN
Experimental: as §1, §2

[1] = biological target: T3, 14-3-3σ-ΔC (C-terminally truncated human 14-3-3σ) (human, UniProt P31947 1-231); assay: MST
T3 chain: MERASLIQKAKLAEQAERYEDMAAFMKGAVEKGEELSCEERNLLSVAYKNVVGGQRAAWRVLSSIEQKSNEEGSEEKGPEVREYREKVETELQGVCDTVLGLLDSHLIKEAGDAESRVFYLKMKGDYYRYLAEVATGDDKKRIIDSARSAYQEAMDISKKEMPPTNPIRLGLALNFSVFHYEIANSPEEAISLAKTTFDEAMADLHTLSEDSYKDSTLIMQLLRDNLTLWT

14-3-3 epsilon = biological target: T4, 14-3-3 epsilon (Homo sapiens); assay: MST
T4 chain: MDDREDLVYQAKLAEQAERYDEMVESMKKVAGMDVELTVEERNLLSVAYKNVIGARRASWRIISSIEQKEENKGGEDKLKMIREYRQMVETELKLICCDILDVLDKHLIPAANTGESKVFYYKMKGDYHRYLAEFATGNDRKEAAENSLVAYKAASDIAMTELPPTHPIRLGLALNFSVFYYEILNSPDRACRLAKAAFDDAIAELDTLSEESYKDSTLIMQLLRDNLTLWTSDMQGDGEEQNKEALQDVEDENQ

14-3-3 theta = biological target: T5, 14-3-3 theta (Homo sapiens); assay: MST
T5 chain: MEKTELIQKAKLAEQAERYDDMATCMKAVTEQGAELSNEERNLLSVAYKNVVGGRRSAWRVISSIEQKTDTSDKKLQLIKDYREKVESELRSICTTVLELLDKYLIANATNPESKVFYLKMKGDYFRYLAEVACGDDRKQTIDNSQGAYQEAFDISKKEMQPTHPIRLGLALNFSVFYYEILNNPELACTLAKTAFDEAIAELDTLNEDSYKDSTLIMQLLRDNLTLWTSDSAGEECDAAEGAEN

Which results are given for `CC(C)C[C@H](NC(=O)[C@H](CC(=O)O)NC(=O)[C@H](C)NC(=O)[C@H](C)NC(=O)[C@H](COP(=O)(O)O)NC(=O)[C@@H](NC(=O)[C@H](CO)NC(=O)[C@H](CCCNC(=N)N)NC(=O)CNC(=O)[C@@H](N)CCCCN)C(C)C)C(=O)N[C@@H](CO)C(=O)O` [Sirt7 S136] (H-KGRSV[pS]AADLS-OH)?
Affinity estimates by MicroScale Thermophoresis, 14-3-3 isoform epsilon (Kd) (14-3-3 isoform epsilon): none; Kd (14-3-3 isoform theta): 30 µM

B1: Sirt7 pS136 (peptide)
chain: KGRSV[pS]AADLS
B1 was tested. Which Kd [1] did it give?
Its Kd is 49 µM.

B2: Sirt6^pT336 phospho-endecamer peptide (peptide)
chain: KRERP[pT]SPAPH
For B2, which Kd [1] is on record?
The Kd was 12 µM.

And the Kd (14-3-3 epsilon)?
Its Kd is > 420 µM.

B3: Sirt6^pS338 phospho-endecamer peptide (peptide)
chain: RERPT[pS]PAPHR
B3 was tested. Which Kd [1] did it give?
The Kd was 24 µM.

What about the Kd (14-3-3 epsilon) of the same molecule?
Its Kd is 19 µM.

B4: Sirt3^pS105 phospho-endecamer peptide (peptide)
chain: RSISF[pS]VGASS
modifications: also: phosphoserine at 105 (place in chain not given here)
B4 was tested. Which Kd (14-3-3 theta) did it give?
The Kd was 60 µM.

What about the Kd (14-3-3 epsilon) of the same molecule?
The Kd was > 215 µM.

B5: Sirt7 pS136 (peptide)
chain: KGRSV[pS]AADLS
How did the Kd (14-3-3 theta) turn out when B5 was run?
Its Kd is 30 µM.

B6: Sirt5 pS168 (peptide)
chain: KTRCT[pS]CGVVA
modifications: cysteine pairing not given here
With B6 as the molecule, how does the Kd [1] read?
Its Kd is > 329 µM.
